# The supplement of paper PMC5998384
# What was measured:
# HeLa Kyoto [1] = test: solubility change mitosis vs G1/S (difference of NP-40 vs SDS log2 ratios) (log2 ratio difference); higher = more soluble in mitosis
# HeLa Kyoto [2] = test: melting temperature (median over replicates), in situ; higher = more thermally stable
# HeLa Kyoto [3] = test: thermal stability score vs G1/S (z-score of summed log2 fold changes over temperatures); higher = more thermally stable than in G1/S
# HeLa Kyoto [4] = test: solubility in G1/S (NP-40 vs SDS abundance) (log2 ratio); higher = more soluble; conditions: cell cycle stage: G1/S
# [5] = cell cycle stage: early G1 (4.5 h after nocodazole release)
# 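For melting temperature (median over replicates), in situ in this document: HeLa Kyoto cells synchronized by double thymidine or nocodazole block, proteins quantified by TMT10plex mass spectrometry, three independent biological replicates.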
# 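For solubility change mitosis vs G1/S (difference of NP-40 vs SDS log2 ratios) in this document: synchronized HeLa Kyoto cells (double thymidine block for G1/S, nocodazole release for mitosis), protein amounts in NP-40 versus SDS lysates quantified by mass spectrometry, three biological replicates.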
# 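For solubility in G1/S (NP-40 vs SDS abundance) in this document: HeLa Kyoto cells arrested at G1/S by double thymidine block, proteins quantified by TMT10plex mass spectrometry in mild NP-40 versus SDS extracts, three biological replicates.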
# 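For thermal stability score vs G1/S (z-score of summed log2 fold changes over temperatures) in this document: synchronized HeLa Kyoto cells, proteins quantified by TMT10plex mass spectrometry, three biological replicates, mitosis taken 0.5 h after nocodazole release, G1/S directly after double thymidine block.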
Sequence,solubility change mitosis (log2) (HeLa Kyoto [1]),melting temperature (HeLa Kyoto [2]; cell cycle stage: G1/S) [°C],melting temperature (HeLa Kyoto [2]; cell cycle stage: mitosis) [°C],thermal stability score (HeLa Kyoto [3]; [5]),thermal stability score (HeLa Kyoto [3]; cell cycle stage: mitosis),solubility in G1/S (log2) (HeLa Kyoto [4])
MELVAGCYEQVLFGFAVHPEPEACGDHEQWTLVADFTHHAHTASLSAVAVNSRFVVTGSKDETIHIYDMKKKIEHGALVHHSGTITCLKFYGNRHLISGAEDGLICIWDAKKWECLKSIKAHKGQVTFLSIHPSGKLALSVGTDKTLRTWNLVEGRSAFIKNIKQNAHIVEWSPRGEQYVVIIQNKIDIYQLDTASISGTITNEKRISSVKFLSESVLAVAGDEEVIRFFDCDSLVCLCEFKAHENRVKDMFSFEIPEHHVIVSASSDGFIKMWKLKQDKKVPPSLLCEINTNARLTCLGVWLDKVADMKESLPPAAEPSPVSKEQSKIGKKEPGDTVHKEEKRSKPNTKKRGLTGDSKKATKESGLISTKKRKMVEMLEKKRKKKKIKTMQ [PAK1IP1],0.614,56.5,53.8,-1.32,-5.78,-1.64
MEMFTFLLTCIFLPLLRGHSLFTCEPITVPRCMKMAYNMTFFPNLMGHYDQSIAAVEMEHFLPLANLECSPNIETFLCKAFVPTCIEQIHVVPPCRKLCEKVYSDCKKLIDTFGIRWPEELECDRLQYCDETVPVTFDPHTEFLGPQKKTEQVQRDIGFWCPRHLKTSGGQGYKFLGIDQCAPPCPNMYFKSDELEFAKSFIGTVSIFCLCATLFTFLTFLIDVRRFRYPERPIIYYSVCYSIVSLMYFIGFLLGDSTACNKADEKLELGDTVVLGSQNKACTVLFMLLYFFTMAGTVWWVILTITWFLAAGRKWSCEAIEQKAVWFHAVAWGTPGFLTVMLLAMNKVEGDNISGVCFVGLYDLDASRYFVLLPLCLCVFVGLSLLLAGIISLNHVRQVIQHDGRNQEKLKKFMIRIGVFSGLYLVPLVTLLGCYVYEQVNRITWEITWVSDHCRQYHIPCPYQAKAKARPELALFMIKYLMTLIVGISAVFWVGSKKTCTEWAGFFKRNRKRDPISESRRVLQESCEFFLKHNSKVKHKKKHYKPSSHKLKVISKSMGTSTGATANHGTSAVAITSHDYLGQETLTEIQTSPETSMREVKADGASTPRLREQDCGEPASPAASISRLSGEQVDGKGQAGSVSESARSEGRISPKSDITDTGLAQSNNLQVPSSSEPSSLKGSTSLLVHPVSGVRKEQGGGCHSDT [FZD6],0.0773,54.7,55.6,-1.37,-2.82,-0.0341
MEMKKKINLELRNRSPEEVTELVLDNCLCVNGEIEGLNDTFKELEFLSMANVELSSLARLPSLNKLRKLELSDNIISGGLEVLAEKCPNLTYLNLSGNKIKDLSTVEALQNLKNLKSLDLFNCEITNLEDYRESIFELLQQITYLDGFDQEDNEAPDSEEEDDEDGDEDDEEEEENEAGPPEGYEEEEEEEEEEDEDEDEDEDEAGSELGEGEEEVGLSYLMKEEIQDEEDDDDYVEEGEEEEEEEEGGLRGEKRKRDAEDDGEEEDD [ANP32E],0.1,46.5,50.1,2.17,4.82,-0.46
MEMTEMTGVSLKRGALVVEDNDSGVPVEETKKQKLSECSLTKGQDGLQNDFLSISEDVPRPPDTVSTGKGGKNSEAQLEDEEEEEEDGLSEECEEEESESFADMMKHGLTEADVGITKFVSSHQGFSGILKERYSDFVVHEIGKDGRISHLNDLSIPVDEEDPSEDIFTVLTAEEKQRLEELQLFKNKETSVAIEVIEDTKEKRTIIHQAIKSLFPGLETKTEDREGKKYIVAYHAAGKKALANPRKHSWPKSRGSYCHFVLYKENKDTMDAINVLSKYLRVKPNIFSYMGTKDKRAITVQEIAVLKITAQRLAHLNKCLMNFKLGNFSYQKNPLKLGELQGNHFTVVLRNITGTDDQVQQAMNSLKEIGFINYYGMQRFGTTAVPTYQVGRAILQNSWTEVMDLILKPRSGAEKGYLVKCREEWAKTKDPTAALRKLPVKRCVEGQLLRGLSKYGMKNIVSAFGIIPRNNRLMYIHSYQSYVWNNMVSKRIEDYGLKPVPGDLVLKGATATYIEEDDVNNYSIHDVVMPLPGFDVIYPKHKIQEAYREMLTADNLDIDNMRHKIRDYSLSGAYRKIIIRPQNVSWEVVAYDDPKIPLFNTDVDNLEGKTPPVFASEGKYRALKMDFSLPPSTYATMAIREVLKMDTSIKNQTQLNTTWLR [PUS7],-0.141,52.3,52.2,0.213,0.4,0.055
MENEPDHENVEQSLCAKTSEEELNKSFNLEASLSKFSYIDMDKELEFKNDLIDDKEFDIPQVDTPPTLESILNETDDEDESFILEDPTLLNIDTIDSHSYDTSSVASSDSGDRTNLKRKKKLPDSFSLHGSVMRHSLLKGISAQIVSAADKVDAGLPTAIAVSSLIAVGTSHGLALIFGKDQNQALRLCLGSTSVGGQYGAISALSINNDCSRLLCGFAKGQITMWDLASGKLLRSITDAHPPGTAILHIKFTDDPTLAICNDSGGSVFELTFKRVMGVRTCESRCLFSGSKGEVCCIEPLHSKPELKDHPITQFSLLAMASLTKILVIGLKPSLKVWMTFPYGRMDPSSVPLLAWHFVAVQNYVNPMLAFCRGDVVHFLLVKRDESGAIHVTKQKHLHLYYDLINFTWINSRTVVLLDSVEKLHVIDRQTQEELETVEISEVQLVYNSSHFKSLATGGNVSQALALVGEKACYQSISSYGGQIFYLGTKSVYVMMLRSWRERVDHLLKQDCLTEALALAWSFHEGKAKAVVGLSGDASKRKAIVADRMVEILFHYADRALKKCPDQGKIQVMEQHFQDMVPVIVDYCLLLQRKDLLFSQMYDKLSENSVAKGVFLECLEPYILSDKLVGITPQVMKDLIVHFQDKKLMENVEALIVHMDITSLDIQQVVLMCWENRLYDAMIYVYNRGMNEFISPMEKLFRVIAPPLNAGKTLTDEQVVMGNKLLVYISCCLAGRAYPLGDIPEDLVPLVKNQVFEFLIRLHSAEASPEEEIYPYIRTLLHFDTREFLNVLALTFEDFKNDKQAVEYQQRIVDILLKVMVENSDFTPSQVGCLFTFLARQLAKPDNTLFVNRTLFDQVLEFLCSPDDDSRHSERQQVLLELLQAGGIVQFEESRLIRMAEKAEFYQICEFMYEREHQYDKIIDCYLRDPLREEEVFNYIHNILSIPGHSAEEKQSVWQKAMDHIEELVSLKPCKAAELVATHFSGHIETVIKKLQNQVLLFKFLRSLLDPREGIHVNQELLQISPCITEQFIELLCQFNPTQVIETLQVLECYRLEETIQITQKYQLHEVTAYLLEKKGDIHGAFLIMLERLQSKLQEVTHQGENTKEDPSLKDVEDTMVETIALCQRNSHNLNQQQREALWFPLLEAMMAPQKLSSSAIPHLHSEALKSLTMQVLNSMAAFIALPSILQRILQDPVYGKGKLGEIQGLILGMLDTFNYEQTLLETTTSLLNQDLHWSLCNLRASVTRGLNPKQDYCSICLQQYKRRQEMADEIIVFSCGHLYHSFCLQNKECTVEFEGQTRWTCYKCSSSNKVGKLSENSSEIKKGRITPSQVKMSPSYHQSKGDPTAKKGTSEPVLDPQQIQAFDQLCRLYRGSSRLALLTELSQNRSSESYRPFSGSQSAPAFNSIFQNENFQLQLIPPPVTED [VPS8],-0.056,52.2,50.1,0.78,1.34,-0.292
MENHKSNNKENITIVDISRKINQLPEAERNLLENGSVYVGLNAALCGLIANSLFRRILNVTKARIAAGLPMAGIPFLTTDLTYRCFVSFPLNTGDLDCETCTITRSGLTGLVIGGLYPVFLAIPVNGGLAARYQSALLPHKGNILSYWIRTSKPVFRKMLFPILLQTMFSAYLGSEQYKLLIKALQLSEPGKEIH [TMEM126A],-0.094,52.8,52.4,-0.173,-0.978,0.245
MEPEEERIRYSQRLRGTMRRRYEDDGISDDEIEGKRTFDLEEKLHTNKYNANFVTFMEGKDFNVEYIQRGGLRDPLIFKNSDGLGIKMPDPDFTVNDVKMCVGSRRMVDVMDVNTQKGIEMTMAQWTRYYETPEEEREKLYNVISLEFSHTRLENMVQRPSTVDFIDWVDNMWPRHLKESQTESTNAILEMQYPKVQKYCLMSVRGCYTDFHVDFGGTSVWYHIHQGGKVFWLIPPTAHNLELYENWLLSGKQGDIFLGDRVSDCQRIELKQGYTFVIPSGWIHAVYTPTDTLVFGGNFLHSFNIPMQLKIYNIEDRTRVPNKFRYPFYYEMCWYVLERYVYCITNRSHLTKEFQKESLSMDLELNGLESGNGDEEAVDREPRRLSSRRSVLTSPVANGVNLDYDGLGKTCRSLPSLKKTLAGDSSSDCSRGSHNGQVWDPQCAPRKDRQVHLTHFELEGLRCLVDKLESLPLHKKCVPTGIEDEDALIADVKILLEELANSDPKLALTGVPIVQWPKRDKLKFPTRPKVRVPTIPITKPHTMKPAPRLTPVRPAAASPIVSGARRRRVRCRKCKACVQGECGVCHYCRDMKKFGGPGRMKQSCVLRQCLAPRLPHSVTCSLCGEVDQNEETQDFEKKLMECCICNEIVHPGCLQMDGEGLLNEELPNCWECPKCYQEDSSEKAQKRKMEESDEEAVQAKVLRPLRSCDEPLTPPPHSPTSMLQLIHDPVSPRGMVTRSSPGAGPSDHHSASRDERFKRRQLLRLQATERTMVREKENNPSGKKELSEVEKAKIRGSYLTVTLQRPTKELHGTSIVPKLQAITASSANLRHSPRVLVQHCPARTPQRGDEEGLGGEEEEEEEEEEEDDSAEEGGAARLNGRGSWAQDGDESWMQREVWMSVFRYLSRRELCECMRVCKTWYKWCCDKRLWTKIDLSRCKAIVPQALSGIIKRQPVSLDLSWTNISKKQLTWLVNRLPGLKDLLLAGCSWSAVSALSTSSCPLLRTLDLRWAVGIKDPQIRDLLTPPADKPGQDNRSKLRNMTDFRLAGLDITDATLRLIIRHMPLLSRLDLSHCSHLTDQSSNLLTAVGSSTRYSLTELNMAGCNKLTDQTLIYLRRIANVTLIDLRGCKQITRKACEHFISDLSINSLYCLSDEKLIQKIS [KDM2A],0.642,52.3,50.5,0.0512,-0.325,-1.07
MEPPYSLTAHYDEFQEVKYVSRCGAGGARGASLPPGFPLGAARSATGARSGLPRWNRREVCLLSGLVFAAGLCAILAAMLALKYLGPVAAGGGACPEGCPERKAFARAARFLAANLDASIDPCQDFYSFACGGWLRRHAIPDDKLTYGTIAAIGEQNEERLRRLLARPGGGPGGAAQRKVRAFFRSCLDMREIERLGPRPMLEVIEDCGGWDLGGAEERPGVAARWDLNRLLYKAQGVYSAAALFSLTVSLDDRNSSRYVIRIDQDGLTLPERTLYLAQDEDSEKILAAYRVFMERVLSLLGADAVEQKAQEILQVEQQLANITVSEHDDLRRDVSSMYNKVTLGQLQKITPHLRWKWLLDQIFQEDFSEEEEVVLLATDYMQQVSQLIRSTPHRVLHNYLVWRVVVVLSEHLSPPFREALHELAQEMEGSDKPQELARVCLGQANRHFGMALGALFVHEHFSAASKAKVQQLVEDIKYILGQRLEELDWMDAETRAAARAKLQYMMVMVGYPDFLLKPDAVDKEYEFEVHEKTYFKNILNSIRFSIQLSVKKIRQEVDKSTWLLPPQALNAYYLPNKNQMVFPAGILQPTLYDPDFPQSLNYGGIGTIIGHELTHGYDDWGGQYDRSGNLLHWWTEASYSRFLRKAECIVRLYDNFTVYNQRVNGKHTLGENIADMGGLKLAYHAYQKWVREHGPEHPLPRLKYTHDQLFFIAFAQNWCIKRRSQSIYLQVLTDKHAPEHYRVLGSVSQFEEFGRAFHCPKDSPMNPAHKCSVW [ECEL1],-0.124,52.9,52.1,0.162,2.03,-0.0684
